Laboratory results from PMC6149798.

Tests used:
[1] = molecular target: 9His-rsLAAO1 (L-amino acid oxidase from Rhizoctonia solani with nine histidine residues as affinity tag) (Rhizoctonia solani); test: SEC; 9His-rsLAAO1 activated with 1.5 mM SDS, added to the protein solution before chromatography; Superdex 200 Increase 10/300 GL, 50 mM NaH2PO4 pH 8.2, 300 mM NaCl
[2] = molecular target: 9His-rsLAAO1 (L-amino acid oxidase from Rhizoctonia solani with nine histidine residues as affinity tag) (Rhizoctonia solani); test: SEC; native 9His-rsLAAO1 on calibrated Superdex 200 Increase 10/300 GL, 50 mM NaH2PO4 pH 8.2, 300 mM NaCl, 0.3 mL/min; without SDS

For “9His-rsLAAO1 (L-amino acid oxidase from Rhizoctonia solani with nine histidine residues as affinity tag) (enzyme)”, the stoichiometry N [1] was 2 and the stoichiometry N [2] was 2.
